Assay results as given in the DeepSol protein solubility set.

Assay: soluble on expression in E. coli; label from the status in PepcDB or PDB records

| Sequence | soluble on expression in E. coli |
| --- | --- |
| MGSDKIHHHHHHMKNPNTVISSDYGPIIINLNDNAIGRQISQYGYWATDDINIINTLVNVQLDKFGQIMFYDVGANIGTHSLAIAKTHPDTVAIRAFEAQRQVFNMLCGTMAINGLSNVHCHHNAISEKIGDFIDIPIPDYNSANNFGSLELIPPKNSDNQGIIHSGKMESVKTLSIDSFNEKVDFIKMDIEGMEDKALLGAINTIEHHRPILFLEILKTDVNFVMTFLRERGYLGFQKSFDLIAIPIEYQLQVNGTNRVF | not soluble |
| MSEGSGDQSQQRPWASPRQQPIKGIVQPRVLPPFGKPTRHTNKLDYIMTTVLKEAGKHKHVWPFQKPVDAVALCIPLYHERVARPMDLKTIENRLKSTYYTCAQECIDDIETVFQNCYTFNGKEDDVTIMAQNVHEVIKKSLEQAPREEHDMDVYWGKNKKKPAKSDGGSKSSSSKKNDARGPSEAPSEAGSEVSSVTTASAAAPTVSESASVAAKPERKVAGKKTGKRKAESEDDEKPEPLRAKREVAVVKKEVHQPLLPSMKPCLKLLNDFSTKKYQEFAWPFNEPVDAEQLGLHDYHKIIKEPMDLKSMKAKMESGAYKEPSDFEHDVRLMLRNCFLYNPVGDPVHSFGLRFQEVFDRRWAELGDSSSRASSVAPQSAPIAPTPKVAKSSAPKEPKESRKEHKKETTFEASGAKSEDLMQINNALSMIREREEKLKAELAAAQAIKDKLTSVKNRREDNPNEPFPEKLINETRALCTTQVGQNASSSSASSAALRNGRSKKAASARLYGYEFDSDDEDNKMALTYEEKRNLSNLINNLPNNQLNTIISIIQRRERSALMQQQLDDSEVELDFESLGDMCLREMGAFIKTIPTLNGNGDDEKPKTSSNPTSSGATGSKGSSSLESKNGKKKKNFNMSESSDDETSNSRKRRKRESSESQSSSSSDDDSDDEDRPSIPRKSGQPPSTSREWNQSSAPPPRMGGMGGQPPMSRVPASSSTSVSAIGKNNAAASSNSYRYRCFFVRKLNLKISNKKKWKSKKNSTNLVFRSSKTCTSTSTNIIKTSGSTETTVKTKENGRNQQRRLRLDHQRKANPGMVKTSRPGFRGCGWRQSEPAKKKTKAVSRCQTKWK | not soluble |
| MGSDKIHHHHHHMAIRTCFCTGVLPVTMDDLTSGYNIAEILTLEPEFLSMLGFTYKEAEVYLRYVLDTYTEGQDRFDDVWQLIVNNYDGYRFLPEAEPLFNSTILTYFFKKFAVRKGGIPSELVDENLRTDIGWIRHLTLSLENAKEMQDALVIDDELSYNVSDLSSKFNKRKFFDKSIYPVSLFYLGMTTLRSNYRMVLPNLTMRSIYMDYYNEMNHIEGNAQRYVPTYERFTEERRFEPLVQNYFEQYLGQFPAQVFDKINENFIRCSFFELCSRYLSSCYTFAIEQNNSAGRSDFEMTGIPGTDYYKDDRLAEFKYFKAKEAERMLALSDPRPEDVAQVLAYAKDTKVKFPHYHVRSYIVYICANKGWKCWEVTP | not soluble |
| MSLVLAYYSGYAGNYAALTRYAASFNAVAVDFYNITAQGAVTGNGDPAPNDAISFLLGRKIPAYGCVSNVDGNGNWSADIAHAVSTSAQSQAVANLVKFAQDKRFSGINVDFEAVAQGDRNNFSHFIQVLGRALHAKGLKLIVSVPAFSAKDENHPANYGYDLRALGAAADYLQIMSYDEAIPAWDPGPVAGSDWMEDDLDYAVERVPAAKILNGIPAYGYDWKRPGDGGMLYWKDTQALIARYGAQPRYDAGTHSLTFNYGAADGSRHTVWTENARSVALKASLVNAYGLGGTSLYALGMEDEGHHHHHH | soluble |
| SITDILSAEDIAAALQECQDPDTFEPQKFFQTSGLSKMSASQVKDIFRFIDNDQSGYLDGDELKYFLQKFQSDARELTESETKSLMDAADNDGDGKIGADEFQEMVHS | soluble |
| GMLPRLCCLEKGPNGYGFHLHGEKGKLGQYIRLVEPGSPAEKAGLLAGDRLVEVNGENVEKETHQQVVSRIRAALNAVRLLVVDPEEDSFL | soluble |
| MGSDKIHHHHHHMKIAFDVDVIKDLGITRMVHQVAEWGYKYIEQSPHPQINPFYKHPRASREIMAEYKQALRDTGLELSSFICVYRWSGPDELRRQAAVKNWKRLVEIAVEMGVQVINTEFSGDPNQPEICDEMFYRSMEELLPIFEREGIRVEIQAHPWDFCEENNETVDIVKSFRSDNVKYVYSVPHTFFYDKGVGDVASMLRYAGSDLSHVLIADTRNHTKHCRYIVNPPGVDAVVHQHVGVGEGDVDFDALFRTLREMKFAEQTFKVGGAPIVATSLFGYPEKMKYQAVETRELIERELLRR | not soluble |
| MTHEYQDLITIFNDTFLEQFNTTLELGGDEPIYLPADDEHPHHRIIFARGFYASALHEIAHWCVAGPERRLMEDFGYWYEPDGRTEAVQAEFEKVEIRPQAYEWILATSAGFPFTVSCDNLHGDFEPDRLGFMQKVHKEVLGILEAGLPPRVKMLSDALRAFYQTKPLEASDFSVK | not soluble |
| MGSDKIHHHHHHMIKNQWYVVLSSRELKKGQLIGVTRFGEKLAFWRDSNGKVHCISDICCHRGASISHGKVLSNGERVMCPFHGFEYDSQGRVRTIPANGRNTPVPENFRVKSYPTYELADFIWIWYGDREPEKPPKYFDDITDELVYTEFKEVWNVHYSRAIENQLDPIHLPFVHYNTIGRGNRTVVDGPIVEWKDDEMFYFYVFNRIDDGTPARKPEEMDPKRKSKVYLEFKFPNIWQNHISEKIRVTAAFTPIDDDHTMIYLRFYVGLTGIKFLDKLIAVLGKPFNKIVLHQDKRVVETQIPKRSELRMGENLIPGDAPILEYRKKREALKSMQQNNRVK | not soluble |
| MGSDKIHHHHHHMEMRFFVLGAGSWGTVFAQMLHENGEEVILWARRKEIVDLINVSHTSPYVEESKITVRATNDLEEIKKEDILVIAIPVQYIREHLLRLPVKPSMVLNLSKGIEIKTGKRVSEIVEEILGCPYAVLSGPSHAEEVAKKLPTAVTLAGENSKELQKRISTEYFRVYTCEDVVGVEIAGALKNVIAIAAGILDGFGGWDNAKAALETRGIYEIARFGMFFGADQKTFMGLAGIGDLMVTCNSRYSRNRRFGELIARGFNPLKLLESSNQVVEGAFTVKAVMKIAKENKIDMPISEEVYRVVYEGKPPLQSMRDLMRRSLKDEFWASVVDSSL | not soluble |
| MSTEHLTPELLRLADSTPGFMPEDEGTALHEAAMQYLPPGGVGVEIGTYCGRSTIYLGAAAKARAARIVTIDHHHGSEEHQPGWEYHEPAFVDPHTGLLDTVGRFRHTMADSGLEDYVVGVLGRSSTVATFWRTPVHFVFIDGGHTSEAASADLEGWAPWVNVGGALVIHDVFPDPADGGRPPFEIYERALATGQFKETSVTGSLRVLERVGGQTGEPLA | not soluble |
| MGSDKIHHHHHHMTTHLTGTRDEWLTARRALLDAEKTLTRHSDALARRREALPWVRVDKTYRFDTEHGAATLDDLFDGRSQLLVYHFMFGPDYKAGCPSCSALADGFDGFAVHLANHDVTLAAVSRAPLAKLLAYRQRMGWRFPWASSEGGAFNFDFNVSFTEAQQRTGDVEYNYARAAHAMDVDPPPAAVAQFAATCGTDAATYARDRPGMSAFVREDGVVYHTYSTYARGLDALWGMYAWLDRAPLGRNETGVWWRRHDEYARD | not soluble |
| MSLAHGIPSQGKVTITVDEYSSNPTQAFTHYNINQSRFQPPHVHMVDPIPYDTPKPAGHTRFVCISDTHSRTDGIQMPYGDILLHTGDFTELGLPSEVKKFNDWLGNLPYEYKIVIAGNHELTFDKEFMADLVKQDYYRFPSVSKLKPEDFDNVQSLLTNSIYLQDSEVTVKGFRIYGAPWTPWFNGWGFNLPRGQSLLDKWNLIPEGIDILMTHGPPLGFRDWVPKELQRVGCVELLNTVQRRVRPKLHVFGGIHEGYGIMTDGYTTYINASTCTVSFQPTNPPIIFDLPNPQGSEGHHHHHH | soluble |
| MTPHATPAPRVSAIVSLYNAERFVRGCLDDLLGQTLADSLEIIVIDACSPQGEGAIVQDYMRDHPNIVYVRTDEREGVYASWNRGVRLARAPYVTNANADDRHREDALERLAAALDEAPEAGFAYGDCRVGQTENERYADNAGQRVMRFPDFFAPATLLYCQLGPQPLWRRSVHDVVGFFDESYRACADWDFDIRLAAAFRGIHVPDALGLYLEHEAAITFRDDTMTRENDRVQRQWQHPEAVEERYRAAGVPCHTAEERALVHFDMALRALRFYPPWCYGAPAHNPGFARRCLRHALRLAPALAPAKELLALPDAVLTALDDLPSPLGLPSQATLAGVAAPLEHHHHHH | not soluble |
